{
  "source": "paper PMC7040160",
  "about": "“Indium-111-labeled CD166-targeted peptide as a potential nuclear imaging agent for detecting colorectal cancer stem-like cells in a xenograft mouse model” (EJNMMI Research, 2020)",
  "key": {"[1]": {"system": "CD166^+HCT15 xenograft mice", "settings": "mouse, in vivo", "description": "The male BALB/c nude mice were subcutaneously inoculating CD166^+HCT15 cells (1 × 10^6 cells) for 2 weeks, and then the ^111In-DTPA, ^111In-DTPA-G18C, ^111In-DTPA-CD166tp-C, and ^111In-DTPA-CD166tp-G18C (740 MBq/kg/mouse) were intravenously injected into mice. The imaging of CD166 in mice at 2, 4, 24, and 48 h were detected by a nano single-photon emission computed tomography/computed tomography (nanoSPECT/CT; Mediso Medical Imaging Systems, Budapest, Hungary). For competitive study, the CD166^+HCT15-derived xenograft mice were pre-treated with CD166tp-G18C (0, 10, and 50 mg/kg) for 6 h. Every mouse then received 740 MBq/kg ^111In-DTPA-CD166tp-G18C via intravenous injection for 24 and 48 h. The competitive CD166 images were observed by a nanoSPECT/CT."}, "[2]": {"test": "in vivo", "settings": "mouse, iv, 148 MBq/kg/mouse, total radioactivity", "description": "(§1) CD166^+HCT15 cells were subcutaneously injected into the right hindlimb of mice for establishing CD166-expressed CRC xenograft mouse model. After tumor formation, the ^111In-DTPA, ^111In-DTPA-G18C, ^111In-DTPA-CD166tp-C, and ^111In-DTPA-CD166tp-G18C (148 MBq/kg/mouse) were intravenously injected into mice […]. After 2, 4, 24, and 48 h post-injection, mice were sacrificed and collected blood and organs including the brain, heart, lung, liver, spleen, kidneys, stomach, small intestine, colon, muscle, and tumor. The organ weight was measured. The radioactivity in blood and organs was determined by a 1470 WIZARD gamma counter (PerkinElmer). The percentage of injected dose per gram of tissue (%ID/g) was calculated."}, "[3]": {"system": "CD166^+HCT15 xenograft mice", "test": "in vivo", "settings": "mouse", "description": "as §1"}, "[4]": {"system": "CD166^+HCT15 cells", "test": "CD166tp-G18C binding assay by flow cytometry", "format": "cell-based, human", "settings": "Fig. 5a", "description": "For CD166 detection on the cellular surface, the optimized density (1 × 10^6 cell) of CD166^+HCT15 and CD166^−HCT15 cells were added with 1 mL PBS with 20 μg IgG-FITC and FITC-conjugated CD166 antibody (CD166ab-FITC) for 1 h. For the CD166tp-G18C binding assay, CD166^+HCT15 and CD166^−HCT15 cells were added with 1 mL PBS with 20 μg CD166tp-G18C-FITC and G18C-FITC for 1 h. In competitive group, CD166^+HCT15 cells were pre-treated with CD166tp-G18C (20 μg/mL) for 1 h and then added 20 μg/mL CD166tp-G18C-FITC for 1 h. After PBS washing, cells were collected for flow cytometric analysis using a FACSCalibur Flow Cytometer (BD Bioscience, San Diego, CA, USA)."}, "[5]": {"molecular_target": "T1, CD166 protein (Homo sapiens, UniProt Q13740)", "T1 sequence (Q13740 28-583)": "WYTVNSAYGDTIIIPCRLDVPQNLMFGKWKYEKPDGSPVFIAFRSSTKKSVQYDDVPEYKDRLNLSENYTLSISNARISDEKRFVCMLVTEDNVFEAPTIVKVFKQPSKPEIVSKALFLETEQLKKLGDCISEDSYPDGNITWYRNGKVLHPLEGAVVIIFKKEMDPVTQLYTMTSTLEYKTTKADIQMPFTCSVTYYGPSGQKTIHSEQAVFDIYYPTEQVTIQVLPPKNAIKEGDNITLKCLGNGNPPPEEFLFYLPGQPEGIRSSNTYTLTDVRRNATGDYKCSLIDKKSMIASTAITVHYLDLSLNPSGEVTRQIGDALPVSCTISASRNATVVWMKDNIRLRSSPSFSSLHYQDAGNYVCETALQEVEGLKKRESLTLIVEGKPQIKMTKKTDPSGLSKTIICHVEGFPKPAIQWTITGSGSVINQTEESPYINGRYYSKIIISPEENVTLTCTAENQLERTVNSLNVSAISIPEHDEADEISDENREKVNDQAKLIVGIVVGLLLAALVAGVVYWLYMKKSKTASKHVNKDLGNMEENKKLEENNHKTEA", "test": "CD166tp-G18C and CD166 protein interaction assay (immunoprecipitation with CD166 antibody)", "format": "binding", "design": "endogenous in cells; host or cells: HCT15 cells (sorted CD166+ and CD166- populations)", "settings": "Fig. 5c", "description": "HCT15 cells (1 × 10^6 cells) were incubated with 20 μg/mL CD166tp-G18C-FITC in the presence or absence of 20 μg/mL CD166tp-G18C at 4 °C for 1 h. After treating immunoblotting lysis buffer with protease inhibitors cocktail (Hycell International, Taipei, Taiwan), the mixture solution was centrifuged at 14,000 rpm (4 °C) for 10 min. The supernatant was treated with or without 2 μg/mL biotinylated-CD166 antibody (Novus Biologicals, Littleton, CO, USA)-conjugated streptavidin agarose beads (Sigma-Aldrich) at 4 °C overnight. In the competitive group, cells were pre-treated with CD166tp-G18C (20 μg/mL) for 1 h at 4 °C. The fluorescence of immunoprecipitates was detected by an ELISA reader (Perkin Elmer)."}, "[6]": {"system": "CD166^+HCT15 and CD166^−HCT15 cells", "test": "Cell viability assay (CCK-8), cell resistance", "settings": "1, 5 and 50 μM, 24 h; absorbance 450 nm; Fig. 3b; n ≥ 5"}, "[7]": {"system": "CD166^+HCT15 cells", "test": "CD166tp-G18C binding assay by immunofluorescence staining", "format": "cell-based, human", "settings": "fixed, 20 μg/mL, 2 h, Fig. 5b", "description": "(§2) The CD166tp-G18C binding assay was determined by immunofluorescence staining in both CD166^−HCT15 and CD166^+HCT15 cells. Briefly, cells (1 × 10^4 cells) were seeded in 4-well Millicell EZ slides (Merck Millipore, Germany) with culture medium at 37 °C and 5% CO2 for 16 h. Cells were fixed using 4% paraformaldehyde for 30 min at 37 °C. The fixed-cells were then incubated in the SuperBlock Blocking Buffers (Thermo Fisher Scientific, USA) for 30 min. Cells were incubated with CD166tp-G18C-FITC (20 μg/mL) for 2 h. DAPI was used to stain the cell nuclei at a concentration of 0.2 μg DAPI/mL PBS for 10 min. The images were captured by a fluorescence microscope (BX53, Olympus, Japan) coupled to a CCD camera. Digital images were analyzed by an Image-Pro Plus software (Media Cybernetics, USA)."}, "[8]": {"system": "CD166^−HCT15 cells", "test": "CD166tp-G18C binding assay by immunofluorescence staining", "format": "cell-based, human", "settings": "fixed, 20 μg/mL, 2 h, Fig. 5b", "description": "as §2"}},
  "note": "Residues, ends and D or L forms follow the SMILES beside them. No end group written: not given here. *: point of attachment. X1 = O=C(O)CN(CCN(CCN(CC(=O)O)CC(=O)O)C(CCCCNC(=O)CCCN1C(=O)CC(*)C1=O)C(=O)O)CC(=O)O",
  "data": [
    {"molecule": "CC(C)C[C@H](NC(=O)[C@H](CC(N)=O)NC(=O)[C@H](CO)NC(=O)[C@H](CC(N)=O)NC(=O)CNC(=O)[C@H](CCC(=O)O)NC(=O)[C@H](CO)NC(=O)[C@@H](N)CC(=O)O)C(=O)N[C@@H](CS)C(=O)N[C@@H](CO)C(=O)N[C@@H](CCC(N)=O)C(=O)N[C@@H](CO)C(=O)NCC(=O)NCC(=O)NCC(=O)NCC(=O)NCC(=O)NCC(=O)NCC(=O)NCC(=O)NCC(=O)NCC(=O)NCC(=O)NCC(=O)NCC(=O)NCC(=O)NCC(=O)NCC(=O)NCC(=O)NCC(=O)N[C@@H](CSC1CC(=O)N(CCCC(=O)NCCCCC(C(=O)O)N(CCN(CC(=O)O)CC(=O)O)CCN(CC(=O)O)CC(=O)O)C1=O)C(=O)O", "note": "(some centres unmarked) [^111In-DTPA-CD166tp-G18C, metal not drawn] (H-DSEGNSNLCSQSGGGGGGGGGGGGGGGGGGC(X1)-OH; N-terminus and C-terminus assumed)", "values": [
      {"measurement": "difference of counts between background and tumor area (nanoSPECT/CT)", "setting": "[1]", "result": "about 8 times"},
      {"measurement": "tissue to tissue ratio at 48 h", "setting": "[2]", "result": "48.9 ± 5.03"},
      {"measurement": "tissue uptake at 4 h", "setting": "[2]", "result": "10.1 ± 1.26", "unit": "%ID/g"},
      {"measurement": "tissue uptake at 24 h", "setting": "[2]", "result": "11.1 ± 2.2", "unit": "%ID/g"},
      {"measurement": "ratio of tumor-to-blood (T/B)", "setting": "[3]", "result": "remarkably increased"},
      {"measurement": "ratio of tumor-to-muscle (T/M)", "setting": "[3]", "result": "remarkably increased"},
      {"measurement": "tumor-to-blood ratios", "setting": "[3]", "result": "5.94 ± 0.51"}
    ]},
    {"molecule": "DSEGNSNLCSQSGGGGGGGGGGGGGGGGGGC [CD166tp-G18C, Glycine18-Cysteine-linked CD166-targeted peptide]", "values": [
      {"measurement": "competition: effect of pretreatment on binding efficiency of CD166tp-G18C-FITC (flow cytometry)", "setting": "[4]; CD166^+HCT15 cells pre-treated with 20 μg/mL for 1 h, then 20 μg/mL CD166tp-G18C-FITC 1 h", "result": "markedly decreased the binding efficiency of CD166tp-G18C-FITC"},
      {"measurement": "competition: effect of pretreatment on CD166tp-G18C-FITC binding (immunoprecipitation assay)", "setting": "[5]; pre-treated with 20 μg/mL for 1 h at 4 °C", "result": "could be inhibited"}
    ]},
    {"molecule": "COc1cccc2c1C(=O)c1c(O)c3c(c(O)c1C2=O)C[C@@](O)(C(=O)CO)C[C@@H]3O[C@H]1C[C@H](N)[C@H](O)[C@H](C)O1", "note": "[doxorubicin]", "values": [
      {"measurement": "resistance of CD166^+HCT15 cells as compared to CD166^−HCT15 cells (cell viability, CCK-8)", "setting": "[6]", "result": "significant resistance"}
    ]},
    {"molecule": "CD166tp-G18C-FITC: FITC-labeled CD166tp-G18C (DSEGNSNLCSQSGGGGGGGGGGGGGGGGGGC; cysteine pairing not given here; also: FITC label, site not given here)", "values": [
      {"measurement": "binding ability by immunofluorescence", "setting": "[7]", "result": "increased"},
      {"measurement": "binding ability by immunofluorescence", "setting": "[8]", "result": "but not in CD166^−HCT15 cells"},
      {"measurement": "fluorescence of CD166tp-G18C-FITC on cells (flow cytometry)", "setting": "[4]; CD166^+HCT15 cells, 20 μg/mL, 1 h, n ≥ 3", "result": "significantly increased"},
      {"measurement": "binding via CD166 protein (fluorescence of CD166 antibody immunoprecipitates)", "setting": "[5]; CD166^+HCT15 cells, 20 μg/mL, 1 h, 4 °C, biotinylated-CD166 antibody 2 μg/mL, n ≥ 3", "result": "could bind"}
    ]}
  ]
}
